B1: recombinant NAP1L4 (aa 2-375 of isoform 1) with N-terminal His-tag (natural protein)
chain: ADHSFSDGVPSDSVEAAKNASNTEKLTDQVMQNPRVLAALQERLDNVPHTPSSYIETLPKAVKRRINALKQLQVRCAHIEAKFYEEVHDLERKYAALYQPLFDKRREFITGDVEPTDAESEWHSENEEEEKLAGDMKSKVVVTEKAAATAEEPDPKGIPEFWFTIFRNVDMLSELVQEYDEPILKHLQDIKVKFSDPGQPMSFVLEFHFEPNDYFTNSVLTKTYKMKSEPDKADPFSFEGPEIVDCDGCTIDWKKGKNVTVKTIKKKQKHKGRGTVRTITKQVPNESFFNFFNPLKASGDGESLDEDSEFTLASDFEIGHFFRERIVPRAVLYFTGEAIEDDDNFEEGEEGEEEELEGDEEGEDEDDAEINPKV
B2: recombinant NAP1L1 (aa 69-391 of isoform 1) with N-terminal His-tag (domain or fragment)
chain: SLPRVVKRRVNALKNLQVKCAQIEAKFYEEVHDLERKYAVLYQPLFDKRFEIINAIYEPTEEECEWKPDEEDEISEELKEKAKIEDEKKDEEKEDPKGIPEFWLTVFKNVDLLSDMVQEHDEPILKHLKDIKVKFSDAGQPMSFVLEFHFEPNEYFTNEVLTKTYRMRSEPDDSDPFSFDGPEIMGCTGCQIDWKKGKNVTLKTIKKKQKHKGRGTVRTVTKTVSNDSFFNFFAPPEVPESGDLDDDAEAILAADFEIGHFLRERIIPRSVLYFTGEAIEDDDDDYDEEGEEADEEGEEEGDEENDPDYDPKKDQNPAECKQQ

Molecular target: the molecule itself
Test: SEC

| Protein | binding result |
| --- | --- |
| B1 | binds |
| B2 | binds |

Source: publication doi:10.1101/2021.05.19.444900 (bioRxiv, 2021)
